Biological target: T1, NM23-wt containing the Strep-tag II (UniProt P15531 1-152, limits assumed)
T1 construct: Strep-tag II version used in the nanoparticle assay; also called wild type hexamers; not shown: Strep-tag II
Assay: gold nanoparticle color change assay
Description: A nanoparticle assay was used to characterize the binding of NM23 dimers versus hexamers. A MUC1*ecd peptide ([…]) (SEQ ID NO:44) was immobilized on NTA-SAM-coated gold colloids. NM23-wt, NM23S120G-dimer and NM23S120G-hexamer were expressed and purified with the Strep-tag II (FIG. 22c). The addition of NM23S120G-dimer induced a pink to blue solution color change, indicating a specific binding, which was then inhibited by the addition of an anti-MUC1* Fab.

T1 sequence (P15531 whole entry): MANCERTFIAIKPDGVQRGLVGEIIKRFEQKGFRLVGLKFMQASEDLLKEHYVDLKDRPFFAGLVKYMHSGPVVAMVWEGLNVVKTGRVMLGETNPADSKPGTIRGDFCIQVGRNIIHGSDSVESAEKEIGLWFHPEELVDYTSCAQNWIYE

B1: MUC1*ecd peptide (QFNQYKTEAASRYNLTISDVSVSDVPFPFSAQSGAHHHHHH) immobilized on NTA-SAM-coated gold colloids (peptide)
peptide: QFNQYKTEAASRYNLTISDVSVSDVPFPFSAQSGAHHHHHH
notes: also called MUC1*ecd peptide (PSMGFR-His tagged)
B1: no binding (tested: 64 nM).
